Data reported in patent publication US20230365662A1.
“And” between values parts separate entries of the source, which are not always exact repeats. Equal entries are not always repeated.

Experiments:
[1] = target: P. gingivalis laboratory strains, serotypes and human clinical isolates (whole cells); assay: immunogold SEM
[2] = target: Porphyromonas gingivalis strain W83 whole cells (surface gingipain/adhesin/hemagglutinin complex)
[3] = target: Porphyromonas gingivalis strain W83 whole cells (surface gingipain/adhesin/hemagglutinin complex); assay: scanning electron microscopy, gold-labelled KB001

B1: KB001 (antibody, V domains shown)
VH: EVQLKQSGPGLVAPSQSLSITCTVSGFSLSIYSVHWVRQPPGKGLEWLGMIWGGGSSDYNSALKSRLSISKDNSKSQVFLKMNSLQTDDTAMYYCARNGNFYAMDYWGQGTSVTVSS
VL: QIVLTQSPAIMSASLGERVTMTCTASSSVSSSFLHWYQQKPGSSPQLWIYSTSNLASGVPARFSGSGSGTSYSLTISSMEAEDAATYYCHQYHHSPYIYTFGGGTKLEIKR
[1]
  average labeled density: 50 µm^-2
[2]
  Kd: 11.4 nM
  Response: 0.216 and 0.186 and 0.297
  koff: 0.000219 s⁻¹
  kon: 19200 M⁻¹ s⁻¹
[3]
  IgG molecules bound per bacteria (molecules per bacterium): 60 and 80
